Experimental findings from patent US20180230200A1 (CITY OF HOPE, published 2018) are described below.

Where only a bound is given, the exact number is not on record here.

Test [1] deals with T1, UL130 expressed from MVA in BHK-21 cells (human cytomegalovirus, UniProt P16772 1-214).
T1 construct: whole, on cells
Description: intracellular FC, MVA-infected BHK-21.
Description: NAb subunit specificity was evaluated by staining BHK-21 cells infected with different MVA recombinants. One or more vectors were used to co-infect BHK-21 at an MOI of 5. […] Four hours post infection cells were fixed and permeabilized using Cytofix/Cytoperm solution (BD Biosciences). NAbs (1 mg/ml) were diluted 1:500 in perm/wash buffer (BD) and added to the cells for 1 hour at 4° C. […] Cells were washed again and resuspended in PBS/0.1% BSA. Fifteen thousand events were collected using the Gallios Flow Cytometer (Beckman Coulter, Miami, Fla., USA) and analyzed with FlowJo Software (Tree Star, Ashland, Oreg., USA). Uninfected cells and cells infected with MVA-Venus were used as controls. GFP expression was analyzed for confirming MVA infection since all the constructs contain a GFP expression cassette (36, 62).
In order to determine the antigen specificity of the vaccine-derived NAbs, intracellular flow cytometry (FC) staining of permeabilized BHK-21 cells infected with MVA expressing single subunits or combinations of two or more subunits of the PC was evaluated.

In test [2] the target is T2, gH of HCMV strain Towne (human cytomegalovirus strain Towne, UniProt P17176 30-742).
T2 sequence: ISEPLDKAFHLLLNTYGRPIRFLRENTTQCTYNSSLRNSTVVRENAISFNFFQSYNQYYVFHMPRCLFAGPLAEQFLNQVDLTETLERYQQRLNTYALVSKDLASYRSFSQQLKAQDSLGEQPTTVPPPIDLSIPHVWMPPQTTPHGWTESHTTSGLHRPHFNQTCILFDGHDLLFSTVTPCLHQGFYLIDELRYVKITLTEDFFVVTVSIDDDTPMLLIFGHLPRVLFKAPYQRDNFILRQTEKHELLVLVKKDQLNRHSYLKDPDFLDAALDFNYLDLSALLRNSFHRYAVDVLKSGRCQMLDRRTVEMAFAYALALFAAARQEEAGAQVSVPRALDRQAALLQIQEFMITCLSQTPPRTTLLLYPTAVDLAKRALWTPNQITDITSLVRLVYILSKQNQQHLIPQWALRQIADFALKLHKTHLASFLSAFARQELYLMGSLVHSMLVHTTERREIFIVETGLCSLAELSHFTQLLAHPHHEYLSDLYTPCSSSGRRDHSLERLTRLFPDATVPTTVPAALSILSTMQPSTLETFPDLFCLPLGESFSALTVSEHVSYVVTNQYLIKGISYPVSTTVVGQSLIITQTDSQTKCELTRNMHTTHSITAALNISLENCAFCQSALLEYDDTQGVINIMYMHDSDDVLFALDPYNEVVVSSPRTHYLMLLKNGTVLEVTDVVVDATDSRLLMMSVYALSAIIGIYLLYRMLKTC
Description: immunoblot, lysates of HCMV-infected MRC-5. (In western blotting, separated proteins are transferred to a membrane and probed.)

The target of test [3] is T3, gH/gL/UL128/UL130/UL131A pentamer complex expressed from MVA-PC in BHK-21 cells (human cytomegalovirus, UniProt P12824 24-743; P16832 31-278; P16837 28-171; P16772 1-214; F5HET4 19-129).
T3 construct: whole, on cells
Description: FC, biotinylated NAb titrated on MVA-PC-infected BHK-21 (cell surface PC).

In test [4] the target is T3, gH/gL/UL128/UL130/UL131A pentamer …. Nature of the test: FC competition, MVA-PC BHK-21; unlabelled row Ab; competitor: biotinylated 21E9. Also: test concentration or dose not given here.
Test [5] shares this target. Nature of the test: FC competition, MVA-PC BHK-21; unlabelled row Ab; competitor: biotinylated 12E2.
Test [6] has the same target. Nature of the test: FC competition, MVA-PC BHK-21; unlabelled row Ab; competitor: biotinylated 54E11.
The target is the same in test [7]. Description: FC competition, MVA-PC BHK-21; unlabelled row Ab; competitor: biotinylated 21F6.
Test [8] shares this target. Description: FC competition, MVA-PC BHK-21; unlabelled row Ab; competitor: biotinylated 62-11. Also: test concentration or dose not given here.
Test [9] concerns the target gH of HCMV strain TB40/E (human cytomegalovirus strain TB40/E). Description: cell-based or functional assay.
Test [10] addresses T3, gH/gL/UL128/UL130/UL131A pentamer …. Description: FC competition, MVA-PC BHK-21; unlabelled row Ab; competitor: biotinylated 1B2.
Test [11] has the same target. Nature of the test: FC competition, MVA-PC BHK-21; unlabelled row Ab; competitor: biotinylated 13B5.
For test [12] the target is unchanged. Nature of the test: FC competition, MVA-PC BHK-21; unlabelled row Ab; competitor: biotinylated AP86. Also: test concentration or dose not given here.
Test [13] has the same target. Nature of the test: FC competition, MVA-PC BHK-21; unlabelled row Ab; competitor: biotinylated 18F10.

B1: 18F10 (antibody, V domains shown)
VH: QVTLKESGPGILQPSQTLSLTCSFSGFSLSTYGIGIGWIRQPSGKGLEWLAHIWWNDNKNYNTALKSRLTISKDPSNNQVFLKIASVDTADTATYFCARTGYFDVWGAGTTVTVSS
VL: DVVLTQTPLSLPVSLGDQVSISCSSSQSLVHSNGNTYIHWYLQKPGQSPKLLIYTVSNRFSGVPDRFSGSGSGTDFTLKISRVEAEDLGLYFCSQSTHVPYTFGGGTKLEIK
notes: also called NAb 18F10
With B1, the binding result in test [1] is reported as “no binding”; in [2], “no binding (tested: 10 µg/ml)”. Moreover, the response in [3] was half-maximal at 6.5 nM (EC50). For the same molecule, the “Binding Inhibition (%)” value in test [4], in test [5], in test [6], in [7], in test [8] and in test [10] was 0% each time. Moreover, the entries for the “Binding Inhibition (%)” value in [11], in [12] and in test [13] were 0%, 100% and 100%, respectively. In test [9], the “IC50, inhibition of TB40/E cell-to-cell spread in ARPE-19” value was found to be 95 µg/mL. Also, the “IC50, neutralization of TB40/E infection of ARPE-19” value in [9] came to 0.763 µg/mL. For the same molecule, the “IC50, neutralization of TB40/E infection of CTB” value in [9] amounted to 8.8 µg/mL. The “IC50, neutralization of TB40/E infection of HUVEC” value in test [9] was determined as 1.49 µg/mL. In test [9], the “IC50, neutralization of TB40/E infection of MRC-5” value was > 25 µg/mL.
